A short description of this data set: label from the status in PepcDB records.

On to “MSLFIALCGLILAGRLILKNYNPQGVLFFVGIVMMTISIFTNNATFVDKSTGWIGFDVFEYISMVFGKQSGGLGLKIMLIGGFALLMSAIGASQVMVKLTAKPLMKLNSPYLMLALAFILGQMLSLFISSATGLGLLLMATLYPVLIRLGCSKAGVASVLASTCAIEFGPGSGNSILAAQTAGLEITEYFVGEQLPIISVLIIVVAIMHAITQRFFDRNDEKNQTLEPINYEDIESEQSAPFYYVILPMLPLFFMLTFSSLGVKTINVGMATAIILSIFISLVFEFIREREVKPVFEKLQGVFDDMGKVFASVVTLIIAGQTFSMGLKSIGAIDSMLHMASSVGLSAAVIILFMALLTFIISALMGSGNAAFFSFAPMVPQIAHKIGANTVDMILPIQLSAGFGRTISPIAGVIIAVAGISGLSPFDIVRRTLIPMVSGWLLMLILTFSKGGQLEQLMPFLIVILVLSVGVGWIMKRKNNRTQLTQ”, for which the protein production result is given as “failed”. In the case of “MSLFKRSVVSEITSHAGVVFSTLVVVWLSVLLVRLLGEAAGGSIGADVVLGLAAFSTITALPTILAVSLFIAVLTTVTRNYRESEMVVWFASGLSLADWLRPVARVAVPIAMLVAALTLVASPWAYRQIGEYRERFEQRSDLSKVTAGQFAESGRGDRVFFAEDPVRPGDELGAVFARSIDPEWLSVLTASNARSETLPNGDRFLVLGEGHRYDLKPGTPEIRLVNFDQYGVRLESKAGEDPMAEARAAAERFSKARSTMQLVQDNTDSSWSQIMWRVAMPLAALNLALLAIPLGAVNPRLGRSGDLLIAGLVGLLYMNMINLSRAWISSGKISFSIGVWAVHAVVALLAAYLLMRRLRVKAPRNAGRGA” it was “failed”; in that of “MSLGALPTAEDIDAVVLDFDGTQTDDRVLIDSDGREFVSVHRGDGLGIAALRKSGLTMLILSTEQNPVVAARARKLKIPVLHGIDRKDLALKQWCEEQGIAPERVLYVGNDVNDLPCFALVGWPVAVASAHDVVRGAARAVTTVPGGDGAIREIASWILGPSLDSLDKEGHHHHHH”, “not failed”; in that of “MSLGKRMGAELIGTFWLVLGGCGSAVLAASSPLGIGVLGVAFAFGLTVLTMAFAIGHISGCHLNPAVSFGLVVGGRFPAKELLPYVIAQVIGAILAAGVIYLIASGKAGFELSAGLASNGYADHSPGGYTLGAGFVSEVVMTAMFLVVIMGATDARAPAGFAPIAIGLALTLIHLISIPVTNTSVNPARSTGPALFVGGWALQQLWLFWVAPLIGAAIGGALYRGLAKEP”, “failed”. Under “MSLGLDYEPSHLMFLVTVLDDRDGEVLGDAIQKLIEREEVLACHAVPCVTKKNRPGHVLVVLVDGGEDPDRVAEDVARDIMVLTGSTGVDRFDADGVYSVPSRFEDVRVVYGEREWRVSVKIAETEEGEVVTVKAEFDECREIGEETGIPPREVKAMVEAAARVGGWVDLKEREIKVQEGHHHHHH” stands “not failed”; under “MSLGTIIIVDDNKGVLTAVQLLLKNHFSKVITLSSPVSLSTVLREENPEVVLLDMNFTSGINNGNEGLFWLHEIKRQYRDLPVVLFTAYADIDLAVRGIKEGASDFVVKPWDNQKLLETLLNAASQAKDGKKEGHHHHHH”, “not failed”; under “MSLGVLRYTLRARGHPNVTAGHRTTFEVTVDPEIGETADCIIGVSSSDSISTLPDEMKRAIARESSLVRVILRTENGYDEIRGYGHPELTLDHPTDIVCRKSDYICSRTLMIRADKAAFDLDENLVRDLRKGRELKVEIIVEYEGHHHHHH”, “not failed”. As to “MSLITNAKLYPPRHPRAVHLAHHLAAIAPGVLVTAAIAAAAVGLRAIPGMPGISPMLLAILIGIVAHNGIGTPSWAVPGVKFSLRRVLRFAIILLGLQLTTAQLIEVGGEGLAIIAATLLATFCFTVWFGRVLGVDRKLTELIAAGTSICGASAIIATNTVTRADDEDVAYGVACVTVFGSLAMVSYPLLQSVLNLDAHGFGLWTGASIHEIAQAVAVSFQGGQRAGEFGTIAKLSRVMMLAPLVIGLGMLARVRAKHQPAGDHTATPPMPWFVLGFVAMIGVNEFVAIPHEAKSWIVAITAFLLSMALAAMGLETDLRKLAARGLRPALLGLTASLFIAGFSLALIKLTGWHG”, the protein production entry is listed as “failed”. With “MSLIVSTIASHSSLQILLGAKKEGFKTRLYVSPKRRPFYSSLPIVDDLVVAEEMTSILNDDGIVVPHGSFVAYLGIEAIEKAKARFFGNRRFLKWETTFELQDKALEGAGIPRVEVVEPEDAKPDELYFVRIEGPRGGSGHFIVEGSELEERLSTLEEPYRVERFIPGVYLYVHFFYSPILERLELLGVDERVLIADGNARWPVKPLPYTIVGNRAIALRESLLPQLYDYGLAFVRTMRELEPPGVIGPFALHFAYDGSFKAIGIASRIDGGSNADHWYSELYWGERLSMGRRIARELRLAEEEDRLEEVVTEGHHHHHH”, the protein production entry was “not failed”. In the case of “MSLKAVIFDLDGVITDTAEYHFLAWKHIAEQIDIPFDRDMNERLKGISREESLESILIFGGAETKYTNAEKQELMHRKNRDYQMLISKLTPEDLLPGIGRLLCQLKNENIKIGLASSSRNAPKILRRLAIIDDFHAIVDPTTLAKGKPDPDIFLTAAAMLDVSPADCAAIEDAEAGISAIKSAGMFAVGVGQGQPMLGADLVVRQTSDLTLELLHEEWEQYRIRESEGHHHHHH” it was “not failed”; in that of “MSLKIAVLDDYQDAVRKLDCFNLLQDHEVKVFNNTVKGVGQLAARVADVEALVLIRERTRVTRQLLDRLPKLKIISQTGRVSRDAGGHIDLDACTDKGVVVLEGKGSPVAPAELTWALVMAAQRRIPQYVASLKHGAWQQSGLKSTTMPPNFGIGRVLKGQTLGIFGYGKIGQLVAGYGRAFGMNVLVWGRENSKERARADGFAVAESKEALFEQSDVLSVHLRLNDETRSIITVADLTRMKPTALFVNTSRAELVEENGLVTALNRGRPGMAAIDVFETEPILQGHTLLRMENCICTPHIGYVERESYEMYFGIAFQNILDVLQGNVDSVANPTALAPALIRAEGHHHHHH”, “not failed”.

“MSLKKLLLLLIIVALFISAFAFDLTQYLSLDVLKEKQQQLNQLFVDYPFQVFAIYFVVYVASTALSLPGATILTLGAGAIFGLGWGLLLASFAASLGAFLAFLSARFILHDWVQEKFGDRLTAINRGMERDGAFYLLSLRLVPLFPFFVINLVMGLTKIKAWTFYWVSQVGMLLGTAVYVNAGTQLAQISSLGDVISADLIGAFVLLGIFPLIAKAVLAFVKRRKAFKGYKKPKSFDNNLVVIGAGSAGLVSAYIAATVKAKVTLIEKHKMGGDCLNTGCVPSKALLHVAELAHNARNASSAGVHVGEVSVDFKQVMQQVKSVIKDIEPHDSVERYTKLGVDVEQGDARIVSPWEVEVTSNVEGKSETKRITTRSIIIATGAKPLVPDFEGLDKVDYLTSDTLWELDELPKRLLVLGGGPIGCELSQAFQRLGSQVTQVEMAERLMGPEDADTVELLTRRLTAEGIDIRLNHKALRFEQHNGESVLIAEQTVDNESVDNQNADQSKDVEIPFDKVLIALGRQPNITGFGLEELGVQTNKTVSTNELLQTNFPNIYACGDVAGPYQLTHVASHQAWYASVNALFDPFKTFRADYSVIPWVTYTSPQVANVGLTEQQAKKADKPYEVTEYDIGELDRAIADDSAYGRVKVLTKPGKDELLGVNIVGPQAGELLAEYVLAMKYGIGLNKILGTIHSYPTLAEANKYVAGEWKRANAPQKLLTWVEKFHRWRRS”: the protein production entry is listed as “failed”. For the sequence “MSLKRFDLIIRSSTVVTETTTYRADVAIRNGIVSAITEPGSISSDDGPAIDGTGLHLFPGMVDVHVHFNEPGRTEWEGFASGSKSLAAGGVTTYFDMPLNSNPPTITREELDKKRQLANEKSLVDYRFWGGLVPGNIDHLQDLHDGGVIGFKAFMSECGTDDFQFSHDETLLKGMKKIAALGSILAVHAESNEMVNALTTIAIEEQRLTVKDYSEARPIVSELEAVERILRFAQLTCCPIHICHVSSRKVLKRIKQAKGEGVNVSVETCPHYLLFSLDEFAEIGYLAKCAPPLRERQEVEDLWDGLMAGEIDLISSDHSPSLPQMKTGKTIFEVWGGIAGCQNTLAVMLTEGYHKRKMPLTQIVQLLSTEPAKRFGLYPQKGTIQVGAEASFTLIDLNESYTLNASDLYYRHPISPYVGQRFRGKVKHTICQGKHVYQDHEGHHHHHH”, the protein production entry was “not failed”.

In the case of “MSLKRILIVDDDTAILDSTKQILEFEGYEVEIAATAGEGLAKIENEFFNLALFDIKLPDMEGTELLEKAHKLRPGMKKIMVTGYASLENSVFSLNAGADAYIMKPVNPRDLLEKIKEKLDEQEKEGHHHHHH”, the protein production entry is “not failed”.

(Values after a protein production outcome set (Wang et al. 2014).)
